The values below come from patent US20220332795A1.

B1: SEQ ID NO 37 (designed binder, not shown: small tags and cut ends)
chain: MLPAPKNLVVSRVTEDSARLSWTTPDAAFDSFPIYYWEVTITGEAIYLSVPGSERSYDLTGLKPGTEYPVDIPGVKGGAASPPLSAIFTT
B2: SEQ ID NO 56 (designed binder, not shown: small tags and cut ends)
chain: MLPAPKNLVVSRVTEDSARLSWTAPDAAFDSFSIGYVELVLLGEAIVLTVPGSERSYDLTGLKPGTEYDVLIPGVKGGSLSRPLSAIFTT
B3: SEQ ID NO 63 (designed binder, not shown: small tags and cut ends)
chain: MLPAPKNLVVSRVTEDSARLSWTAPDAAFDSFCISYYERMGRGEAIVLTVPGSERSYDLTGLKPGTEYMVYIFGVKGGLNSLPLSAIFTT
B4: SEQ ID NO 39 (designed binder, not shown: small tags and cut ends)
chain: MLPAPKNLVVSRVTEDSARLSWTAPDAAFDSFPIPYTEPPDPGEAIVLTVPGSERSYDLTGLKPGTEYLVTILGVKGGSMSVPLSAIFTT
B5: SEQ ID NO 50 (designed binder, not shown: small tags and cut ends)
chain: MSLPAPKNLVVSRVTEDSARLSWTAPDAAFDSFTIHYREFQLSGEAIVLTVPGSERSYDLTGLKPGTEYDVPIEGVKGGPGSRPLSAIFTT
B6: SEQ ID NO 6 (designed binder, not shown: small tags and cut ends)
chain: MLPAPKNLVVSRVTEDSARLSWTAPDAAFDSFPIIYMETFSRGEAIVLTVPGSERSYDLTGLKPGTEYRVPIGGVKGGSSSCPLSAIFTT
B7: SEQ ID NO 43 (designed binder, not shown: small tags and cut ends)
chain: MLPAPKNLVVSRVTEDSARLSWTAPDAAFDSFMIVYYEYTRFGEAIVLTVPGSERSYDLTGLKPGTEYTVPIDGVKGGGRSSPLSAIFTT
B8: SEQ ID NO 47 (designed binder, not shown: small tags and cut ends)
chain: MLPAPKNLVVSRVTEDSARLSWTAPDAAFDSFGIVYLEMMVTGEAIVLTVPGSERSYDLTGLKPGTEYDVPILGVKGGTRSVPLSAIFTT
B9: SEQ ID NO 48 (designed binder, not shown: small tags and cut ends)
chain: MLPAPKNLVVSRVTEDSARLSWTAPDAAFDSFLIYYEEGYLEYYYSGEAIVLTVPGSERSYDLTGLKPGTEYYVGIVGVKGGGLSGPLSAISTT
B10: SEQ ID NO 40 (designed binder, not shown: small tags and cut ends)
chain: MLPAPKNLVVSRVTEDSARLSWTAPDAAFDSFTIDYWENRCPGEAIVLTVPGSERSYDLTGLKPGTEYCVWISGVKGGYSSWPLSAIFTT
B11: SEQ ID NO 62 (designed binder, not shown: small tags and cut ends)
chain: MLPAPKNLVVSRVTEDSARLSWTAPDAAFDSFKIRYTETRSIGEAIVLTVPGSERSYDLTGLKPGTEYCVPIGGVKGGDSSWPLSAISTT
B12: SEQ ID NO 66 (designed binder, not shown: small tags and cut ends)
chain: MLPAPKNLVVSRVTEDSARLSWTAPDAAFDSFTIDYDEPRSPGEAIVLTVPGSERSYDLTGLKPGTEYRVFIWGIKGGDTSFPLSAIFTT
B13: SEQ ID NO 42 (designed binder, not shown: small tags and cut ends)
chain: MLPAPKNLVVSRVTEDSARLSWTAPDAAFDSFLIPYAETSPSGEAIVLTVPGSERSYDLTGLKPGTEYSVLIHGVKGGDYSEPLSAIFTT
B14: SEQ ID NO 44 (designed binder, not shown: small tags and cut ends)
chain: MLPAPKNLVVSRVTEDSARLSWTAPDAAFDSFFIPYAEPSPTGEAIVLTVPGSERSYDLTGLKPGTEYSVLIHGVKGGHLSDPLSAIVTT
B15: SEQ ID NO 68 (designed binder, not shown: small tags and cut ends)
chain: MLPAPKNLVVSRVTEDSARLSWTAPDAAFDSFIIPYAEVRPDGEAIVLTVPGSERSYDLTGLKPGTEYSVLIHGVKGGHLSDPLSAISTT
B16: SEQ ID NO 57 (designed binder, not shown: small tags and cut ends)
chain: MLPAPKNLVVSRVTEDSARLSWTAPDAAFDSFAIPYAELSRNGEAIVLTVPGSERSYDLTGLKPGTEYTVLIHGVKGGCLSDPLSAIFTT
B17: SEQ ID NO 46 (designed binder, not shown: small tags and cut ends)
chain: MLPAPKNLVVSRVTEDSARLSWTAPDAAFDSFIIPYAEVRPDGEAIVLTVPGSERSYDLTGLKPGTEYSVLIHGVKGGKLSLPLSAIFTT
B18: SEQ ID NO 65 (designed binder, not shown: small tags and cut ends)
chain: MLPAPKNLVVSRVTKDSARLSWTAPDAAFDSFPIAYAEPRPDGEAIVLTVPGSERSYDLTGLKPGTEYSVLIHGVKGGLLSSPLSAIFTT
B19: SEQ ID NO 64 (designed binder, not shown: small tags and cut ends)
chain: MLPAPKNLVVSRVTEDSARLSWTAPDAAFDSFYIVYAEPIPNGEAIVLTVPGSERSYDLTGLKPGTEYSVLIHGVKGGRNSDPLSAIFTT
B20: SEQ ID NO 38 (designed binder, not shown: small tags and cut ends)
chain: MLPAPKNLVVSRVTEDSARLSWTAPDAAFDSFPILYLEHTVRSEAIVLTVPGSERSYDLTDLKPGTEYCVPIDGVKGGLRSRPLSAIFTT
B21: SEQ ID NO 4 (designed binder, not shown: small tags and cut ends)
chain: MLPAPKNLVVSEVTEDSARLSWQGVARAFDSFLITYRDQIFAGEVIVLTVPGSERSYDLTGLKPGTEYPVWIQGVKGGSPSAPLSAESTT
B22: SEQ ID NO 5 (designed binder, not shown: small tags and cut ends)
chain: MLPAPKNLVVSEVTEDSARLSWQGVARAFDSFLITYREQIFAGEVIVLTVPGSERSYDLTGLKPGTEYWVYIWGVKGGKPSFPLRAGFTT
B23: SEQ ID NO 41 (designed binder, not shown: small tags and cut ends)
chain: MLPAPKNLVVSRVTEDSARLSWQGVARAFDSFLITYREQIFAGEVIVLTVPGSERSYDLTGLKPGTEYPVWIQGVKGGHLSDPLSAIVTT
B24: SEQ ID NO 53 (designed binder, not shown: small tags and cut ends)
chain: MLPAPENLVVSEVTEDSARLSWQGVARAFDSFLITYREQIFAGEVIVLTVPGSERSYDLTGLKPGTEYPVWIQGVKGGSPSAPLSAESTT
B25: SEQ ID NO 61 (designed binder, not shown: small tags and cut ends)
chain: MLPAPKNLVVSRVTEDSARLSWTAPDAAFDSFQIVYSELWIKGEAIVLTVPGSERSYDLTGLKPGTEYQVPIPGVKGGRNSFPLSAIFTT
B26: SEQ ID NO 59 (designed binder, not shown: small tags and cut ends)
chain: MLPAPKNLVVSRVTEDSARLSWTAPDAAFDSFVYNEVHWIGEAIVLTVPGSERSYDLTGLKPGTEYFVGIYGVKGGHWSKPLSAIFTT
B27: SEQ ID NO 54 (designed binder, not shown: small tags and cut ends)
chain: MLPAPKNLVVSRVTEDSARLSWTAPDAAFDSFAIAYGEHIVIGEAIVLTVPGSERSYDLTGLKPGTEYMVPIAGVKGGPISLPLSAIFTT
B28: SEQ ID NO 67 (designed binder, not shown: small tags and cut ends)
chain: MLPAPKNLVVSRVTEDSARLSWTAPDAAFDSFTILYAEQAQFGEAIVLTVPGSERSYDLTGLKPGTEYPITGVKGGTRSGPLSAISTT

The target of this assay is human serum albumin (human) (UniProt P02768). The experiment in a line: primary solution ELISA screen. In general terms: In an ELISA, binding on a coated surface is turned into a signal by an enzyme label.
Chain of human serum albumin (human) (P02768 25-609 limits assumed): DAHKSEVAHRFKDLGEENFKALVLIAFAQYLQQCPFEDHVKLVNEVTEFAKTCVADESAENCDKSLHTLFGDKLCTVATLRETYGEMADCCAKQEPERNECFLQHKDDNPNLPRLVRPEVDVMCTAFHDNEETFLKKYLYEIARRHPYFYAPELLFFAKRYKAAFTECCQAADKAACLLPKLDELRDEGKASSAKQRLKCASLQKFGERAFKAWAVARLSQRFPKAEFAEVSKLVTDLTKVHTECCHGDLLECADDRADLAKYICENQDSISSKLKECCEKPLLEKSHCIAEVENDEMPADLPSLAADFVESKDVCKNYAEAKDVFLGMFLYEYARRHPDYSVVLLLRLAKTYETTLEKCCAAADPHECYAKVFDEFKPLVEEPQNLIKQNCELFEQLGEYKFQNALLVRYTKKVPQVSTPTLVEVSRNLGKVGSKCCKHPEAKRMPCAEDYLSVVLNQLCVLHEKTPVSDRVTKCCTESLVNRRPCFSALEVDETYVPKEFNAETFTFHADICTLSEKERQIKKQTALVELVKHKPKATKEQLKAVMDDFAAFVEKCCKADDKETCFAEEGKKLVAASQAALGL
The molecule B1 displayed an RLU of 28600 RLU.

The molecule B2 gave an RLU of 19400 RLU.

B3 returned an RLU of 5700 RLU.

Regarding B4, the RLU worked out at 51100 RLU.

Consider B5, for which the RLU came to 16000 RLU.

As to B6, the RLU stood at 7300 RLU.

Regarding B7, the RLU was 21500 RLU.

B8 returned an RLU of 20400 RLU.

Molecule B9 had an RLU of 115000 RLU.

As for B10, the RLU amounted to 13600 RLU.

B11 yielded an RLU of 8100 RLU.

In turn, B12 yielded an RLU of 8100 RLU.

B13 returned an RLU of 1000 RLU.

In turn, B14 registered an RLU of 56600 RLU.

Molecule B15 gave an RLU of 38400 RLU.

B16 had an RLU of 38800 RLU.

For the molecule B17, the RLU is 8150 RLU.

B18 had an RLU of 16000 RLU.

As for B19, the RLU worked out at 6000 RLU.

The molecule B20 had an RLU of 8150 RLU.

Molecule B21 showed an RLU of 174000 RLU.

B22 registered an RLU of 45000 RLU.

B23 yielded an RLU of 115000 RLU.

On to B24, for which the RLU amounted to 32000 RLU.

Molecule B25 registered an RLU of 13600 RLU.

For B26, the RLU turned out to be 16400 RLU.

B27 showed an RLU of 11700 RLU.

On to B28, for which the RLU is 14200 RLU.
